The labels stand for the following.
T1: FANCA (human, UniProt O15360 1-1455)
T1 sequence: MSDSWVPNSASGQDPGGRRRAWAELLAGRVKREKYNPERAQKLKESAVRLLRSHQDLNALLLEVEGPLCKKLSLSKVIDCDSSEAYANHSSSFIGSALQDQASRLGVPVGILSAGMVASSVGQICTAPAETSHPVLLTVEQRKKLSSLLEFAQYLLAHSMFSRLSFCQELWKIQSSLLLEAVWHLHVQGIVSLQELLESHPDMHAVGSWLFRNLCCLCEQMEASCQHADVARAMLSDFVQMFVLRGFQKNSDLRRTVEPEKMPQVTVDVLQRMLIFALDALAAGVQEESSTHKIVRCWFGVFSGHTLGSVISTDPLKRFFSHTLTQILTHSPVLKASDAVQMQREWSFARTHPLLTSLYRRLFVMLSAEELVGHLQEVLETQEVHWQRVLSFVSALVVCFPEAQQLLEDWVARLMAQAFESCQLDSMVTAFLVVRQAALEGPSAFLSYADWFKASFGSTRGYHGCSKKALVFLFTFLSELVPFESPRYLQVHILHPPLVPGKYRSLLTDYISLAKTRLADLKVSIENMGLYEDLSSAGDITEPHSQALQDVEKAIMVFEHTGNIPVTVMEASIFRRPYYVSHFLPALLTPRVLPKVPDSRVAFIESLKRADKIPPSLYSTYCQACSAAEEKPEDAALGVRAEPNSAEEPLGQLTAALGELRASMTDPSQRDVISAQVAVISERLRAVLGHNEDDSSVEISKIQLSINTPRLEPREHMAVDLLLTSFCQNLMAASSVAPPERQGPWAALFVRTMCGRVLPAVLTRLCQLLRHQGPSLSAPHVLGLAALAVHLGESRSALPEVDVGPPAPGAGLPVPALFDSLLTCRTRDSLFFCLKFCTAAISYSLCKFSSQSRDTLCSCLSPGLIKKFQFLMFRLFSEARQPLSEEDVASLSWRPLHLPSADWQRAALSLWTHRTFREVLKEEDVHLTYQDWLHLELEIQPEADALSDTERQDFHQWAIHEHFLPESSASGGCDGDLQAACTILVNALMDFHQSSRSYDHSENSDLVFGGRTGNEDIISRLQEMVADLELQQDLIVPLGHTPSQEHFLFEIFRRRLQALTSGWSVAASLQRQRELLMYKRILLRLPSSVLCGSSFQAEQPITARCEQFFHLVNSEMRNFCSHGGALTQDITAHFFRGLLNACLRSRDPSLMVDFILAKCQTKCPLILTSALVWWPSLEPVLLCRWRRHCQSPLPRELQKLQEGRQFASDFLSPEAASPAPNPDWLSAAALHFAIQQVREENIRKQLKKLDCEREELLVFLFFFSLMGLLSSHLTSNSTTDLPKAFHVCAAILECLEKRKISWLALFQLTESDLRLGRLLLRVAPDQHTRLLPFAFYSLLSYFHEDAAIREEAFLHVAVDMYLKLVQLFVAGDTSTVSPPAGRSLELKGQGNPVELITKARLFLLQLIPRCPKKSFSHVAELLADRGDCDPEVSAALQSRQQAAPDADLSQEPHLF

T2: FANCB (human, UniProt Q8NB91 1-859)
T2 sequence: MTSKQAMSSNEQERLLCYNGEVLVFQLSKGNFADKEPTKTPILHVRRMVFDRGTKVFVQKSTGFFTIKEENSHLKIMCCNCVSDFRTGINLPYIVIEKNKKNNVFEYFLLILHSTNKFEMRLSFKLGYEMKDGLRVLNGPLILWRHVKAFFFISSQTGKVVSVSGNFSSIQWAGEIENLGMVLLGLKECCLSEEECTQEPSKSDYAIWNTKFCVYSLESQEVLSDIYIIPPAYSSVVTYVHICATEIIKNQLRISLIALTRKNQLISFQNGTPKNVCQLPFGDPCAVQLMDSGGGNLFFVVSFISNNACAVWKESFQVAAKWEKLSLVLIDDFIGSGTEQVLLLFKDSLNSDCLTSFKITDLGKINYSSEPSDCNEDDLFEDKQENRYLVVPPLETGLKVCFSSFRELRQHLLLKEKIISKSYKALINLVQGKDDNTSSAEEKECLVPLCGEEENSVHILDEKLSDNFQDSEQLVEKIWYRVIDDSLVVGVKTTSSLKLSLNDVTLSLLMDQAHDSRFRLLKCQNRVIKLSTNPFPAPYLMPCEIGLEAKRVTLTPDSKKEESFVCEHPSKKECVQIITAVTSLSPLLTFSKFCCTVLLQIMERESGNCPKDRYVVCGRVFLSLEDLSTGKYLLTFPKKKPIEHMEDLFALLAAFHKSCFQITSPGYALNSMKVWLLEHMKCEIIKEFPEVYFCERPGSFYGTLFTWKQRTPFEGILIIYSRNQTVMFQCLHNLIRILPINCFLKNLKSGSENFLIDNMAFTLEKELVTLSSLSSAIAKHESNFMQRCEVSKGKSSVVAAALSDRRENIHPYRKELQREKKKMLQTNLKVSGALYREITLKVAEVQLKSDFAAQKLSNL

T3: FAAP100 (human, UniProt Q0VG06 1-881)
T3 sequence: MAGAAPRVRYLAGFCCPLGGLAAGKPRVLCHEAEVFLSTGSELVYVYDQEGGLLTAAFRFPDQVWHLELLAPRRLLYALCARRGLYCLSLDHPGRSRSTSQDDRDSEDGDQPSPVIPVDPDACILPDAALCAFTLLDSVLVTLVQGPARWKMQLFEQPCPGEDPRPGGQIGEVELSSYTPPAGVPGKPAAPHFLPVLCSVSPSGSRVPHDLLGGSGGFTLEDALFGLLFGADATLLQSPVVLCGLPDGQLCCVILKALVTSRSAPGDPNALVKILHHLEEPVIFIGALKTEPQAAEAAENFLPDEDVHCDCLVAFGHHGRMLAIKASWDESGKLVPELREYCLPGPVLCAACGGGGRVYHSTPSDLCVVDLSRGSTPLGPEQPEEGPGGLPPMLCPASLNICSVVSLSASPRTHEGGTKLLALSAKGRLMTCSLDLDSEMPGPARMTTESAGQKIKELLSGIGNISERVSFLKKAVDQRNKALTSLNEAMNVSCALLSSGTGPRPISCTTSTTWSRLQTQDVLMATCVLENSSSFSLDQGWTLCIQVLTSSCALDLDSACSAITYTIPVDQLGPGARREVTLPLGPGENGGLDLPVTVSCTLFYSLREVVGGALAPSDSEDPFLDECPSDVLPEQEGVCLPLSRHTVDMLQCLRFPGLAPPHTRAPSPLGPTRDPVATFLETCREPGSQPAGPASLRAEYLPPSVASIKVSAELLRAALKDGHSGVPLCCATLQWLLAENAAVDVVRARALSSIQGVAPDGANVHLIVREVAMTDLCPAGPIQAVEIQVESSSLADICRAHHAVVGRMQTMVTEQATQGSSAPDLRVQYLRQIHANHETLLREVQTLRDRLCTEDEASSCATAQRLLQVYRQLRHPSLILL

T4: FANCC (human, UniProt Q00597 1-558)
T4 sequence: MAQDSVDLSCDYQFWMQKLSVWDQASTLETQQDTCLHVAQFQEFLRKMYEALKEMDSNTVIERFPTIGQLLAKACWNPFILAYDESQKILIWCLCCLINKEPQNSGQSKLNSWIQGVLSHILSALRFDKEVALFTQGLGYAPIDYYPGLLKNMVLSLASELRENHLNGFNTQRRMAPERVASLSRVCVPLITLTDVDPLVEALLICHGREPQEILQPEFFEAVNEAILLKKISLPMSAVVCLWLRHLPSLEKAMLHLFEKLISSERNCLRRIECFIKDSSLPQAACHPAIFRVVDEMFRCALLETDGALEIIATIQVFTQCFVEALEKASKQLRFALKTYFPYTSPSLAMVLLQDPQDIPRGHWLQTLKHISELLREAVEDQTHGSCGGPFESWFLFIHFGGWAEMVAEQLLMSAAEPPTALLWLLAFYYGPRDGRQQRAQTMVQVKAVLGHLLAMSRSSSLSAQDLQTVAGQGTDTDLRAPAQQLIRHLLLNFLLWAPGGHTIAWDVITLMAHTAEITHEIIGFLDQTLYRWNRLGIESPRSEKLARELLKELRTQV

B1: FANCG (natural protein)
chain: MSRQTTSVGSSCLDLWREKNDRLVRQAKVAQNSGLTLRRQQLAQDALEGLRGLLHSLQGLPAAVPVLPLELTVTCNFIILRASLAQGFTEDQAQDIQRSLERVLETQEQQGPRLEQGLRELWDSVLRASCLLPELLSALHRLVGLQAALWLSADRLGDLALLLETLNGSQSGASKDLLLLLKTWSPPAEELDAPLTLQDAQGLKDVLLTAFAYRQGLQELITGNPDKALSSLHEAASGLCPRPVLVQVYTALGSCHRKMGNPQRALLYLVAALKEGSAWGPPLLEASRLYQQLGDTTAELESLELLVEALNVPCSSKAPQFLIEVELLLPPPDLASPLHCGTQSQTKHILASRCLQTGRAGDAAEHYLDLLALLLDSSEPRFSPPPSPPGPCMPEVFLEAAVALIQAGRAQDALTLCEELLSRTSSLLPKMSRLWEDARKGTKELPYCPLWVSATHLLQGQAWVQLGAQKVAISEFSRCLELLFRATPEEKEQGAAFNCEQGCKSDAALQQLRAAALISRGLEWVASGQDTKALQDFLLSVQMCPGNRDTYFHLLQTLKRLDRRDEATALWWRLEAQTKGSHEDALWSLPLYLESYLSWIRPSDRDAFLEEFRTSLPKSCDL
B2: FANCF (natural protein)
chain: MESLLQHLDRFSELLAVSSTTYVSTWDPATVRRALQWARYLRHIHRRFGRHGPIRTALERRLHNQWRQEGGFGRGPVPGLANFQALGHCDVLLSLRLLENRALGDAARYHLVQQLFPGPGVRDADEETLQESLARLARRRSAVHMLRFNGYRENPNLQEDSLMKTQAELLLERLQEVGKAEAERPARFLSSLWERLPQNNFLKVIAVALLQPPLSRRPQEELEPGIHKSPGEGSQVLVHWLLGNSEVFAAFCRALPAGLLTLVTSRHPALSPVYLGLLTDWGQRLHYDLQKGIWVGTESQDVPWEELHNRFQSLCQAPPPLKDKVLTALETCKAQDGDFEVPGLSIWTDLLLALRSGAFRKRQVLGLSAGLSSV

Holding throughout (experiment): cryo-EM structure
One assay deals with T1, FANCA.
A further assay deals with T2, FANCB.
The target of a further assay is T3, FAAP100.
A further assay deals with T4, FANCC.
The assay “FANCG” addresses B1.

For B1, the binding result in the assay with FANCA, with FANCB and with FAAP100 was “binds” each time.
As for B2, the binding result in the assay with FANCC and with FANCG was “binds” each time.

Source of the values: paper doi:10.1101/854158 (bioRxiv, 2019).
